{"source": "paper PMC4870115", "about": "(Biochemistry, 2016)", "molecular_target": "the molecule itself", "test": "crystal structure"}
{"protein": "ToxA of Burkholderia glumae (enzyme) MSTTARYDSIGGLFEDFTQSAAQRAIEVRTIFHMIGDVSGKSVLDLACGFGFFGREIYRRGAAKVVGVDISEKMIELAREESRKYGDPLEFHVRDVANMEPLGQFDLVNAAWLFNYADSVENLRKMFKVVRASLKPDGKLVAYTVDPDFSLAKGNFAKYGVNVLNERAWGPGYRHDAEFVTDPPSQFSFYRWSRADYESAIADAGFSHFEWQKPLLEADDIATHPPGFWDVFQNNCLQTGLVCKP", "values": [{"measurement": "stoichiometry N", "value": 4}]}
